Assay results reported in patent US20020028202A1 (Biogen, published 2002).
Where a chain is given by its changes, count along the chain named.

Legend:
Assay in all cases: staining of transfected COS-7 cells, FACS
[1] = target: T1, human gc chain mutant, IHL replaced by Ala (Domain 1 Loop EF), myc-tagged, on COS-7 cells (human, UniProt P31785 23-369)
T1 construct: whole, on cells; not shown: 9 amino acid myc tag at the 5' end of the construct
T1 sequence (looked up): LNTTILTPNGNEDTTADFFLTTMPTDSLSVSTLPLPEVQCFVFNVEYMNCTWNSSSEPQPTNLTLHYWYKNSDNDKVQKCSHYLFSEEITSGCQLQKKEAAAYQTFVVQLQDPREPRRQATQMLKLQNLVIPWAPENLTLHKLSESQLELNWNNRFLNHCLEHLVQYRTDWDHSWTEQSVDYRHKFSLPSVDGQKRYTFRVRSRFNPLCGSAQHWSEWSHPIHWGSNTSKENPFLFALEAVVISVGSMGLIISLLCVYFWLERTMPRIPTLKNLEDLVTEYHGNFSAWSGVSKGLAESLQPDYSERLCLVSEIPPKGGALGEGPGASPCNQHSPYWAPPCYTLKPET
Procedure: (§1) COS-7 cells are transiently transfected with 20 ug of DNA encoding the gc chain mutant or wildtype cDNA and 180 ug of herring sperm carrier DNA. After 2-3 days, COS-7 cells are harvested and analyzed by immnunofluorescent staining with anti-gc chain mAbs. MAbs are used at 10 ug/ml in PBS-1% BSA-0.02% sodium azide and allowed 30 minutes to bind to 1×10⁶ COS-7 cells. Cells are then washed 2 times, and bound mAb is detected with PE-conjugated goat anti-mouse Fc specific antibodies. The % of positive cells staining with the anti-gc chain mAb over an irrelevant control Ig is determined for a given gc chain mutant and for wildtype gc chain. […] Data are adjusted for any differences in level of expression of a mutant vs. wildtype constructs by measuring the binding of a mAb specific for a 9 amino acid myc tag engineered at the 5′ end of each gc chain construct. […] Values reduced from 100% indicate amino acid mutations which affect mAb binding.
(§2) The value “100%” indicates no effect of mutation and lower percentages indicate greater losses in binding as a result of the sequence change.

[2] = target: T2, human gc chain mutant, VIP replaced by Ala (interdomain residues), myc-tagged, on COS-7 cells (human, UniProt P31785 23-369)
T2 construct: whole, on cells; not shown: 9 amino acid myc tag at the 5' end of the construct
T2 sequence (looked up): T1 sequence (looked up) with A100I, A101H, A102L, V130A, I131A, P132A
Procedure: as §1, §2

[3] = target: T3, human gc chain mutant, PL replaced by Ala (Domain 2 Loop FQ), myc-tagged, on COS-7 cells (human, UniProt P31785 23-369)
T3 construct: whole, on cells; not shown: 9 amino acid myc tag at the 5' end of the construct
T3 sequence (looked up): T1 sequence (looked up) with A100I, A101H, A102L, P207A, L208A
Procedure: as §1, §2

[4] = target: T4, human gc chain mutant, HCL replaced by Ala (Domain 2 Loop BC), myc-tagged, on COS-7 cells (human, UniProt P31785 23-369)
T4 construct: whole, on cells; not shown: 9 amino acid myc tag at the 5' end of the construct
T4 sequence (looked up): T1 sequence (looked up) with A100I, A101H, A102L, H159A, C160A, L161A
Procedure: as §1, §2

[5] = target: T5, human gc chain mutant, PW replaced by Ala (interdomain residues), myc-tagged, on COS-7 cells (human, UniProt P31785 23-369)
T5 construct: whole, on cells; not shown: 9 amino acid myc tag at the 5' end of the construct
T5 sequence (looked up): T1 sequence (looked up) with A100I, A101H, A102L, P132A, W133A
Procedure: as §1, §2

[6] = target: T6, human gc chain mutant, FNP replaced by Ala (Domain 2 Loop FQ), myc-tagged, on COS-7 cells (human, UniProt P31785 23-369)
T6 construct: whole, on cells; not shown: 9 amino acid myc tag at the 5' end of the construct
T6 sequence (looked up): T1 sequence (looked up) with A100I, A101H, A102L, F205A, N206A, P207A
Procedure: as §1, §2

% binding to mutant gc chain/wildtype gc chain [1]: 0% | % binding to mutant gc chain/wildtype gc chain [2]: 21% | % binding to mutant gc chain/wildtype gc chain [3]: 86% | % binding to mutant gc chain/wildtype gc chain [4]: 8% | % binding to mutant gc chain/wildtype gc chain [5]: 73% | % binding to mutant gc chain/wildtype gc chain [6]: 28%
B1: CP.B8 monoclonal antibody (murine anti-human gc chain, hybridoma ATCC HB-12107) (antibody, V domains shown)
VH: LQESGPGLVAPSQSLSITCTVSGFSLTSYGVHWVRQPPGKGLEWLGVIWAGGSTNYNSALMSRLNINRDNSKSQIFLKMNSLQTDDTAIYYCAREGSTVDSMDYWGQGTTVT
VL: DIVMTQSHKFMSTSVGDSITITCKASQDVTTAVAWYQQKPGQSPKLLIYWASTRHTGVPDRFTGSGSGTDYTLTISSVQAEDLALYYCQQHYITPWTFGGGTKLEI
notes: Used unconjugated and biotin-conjugated; also called CP.B8 mAb; mAb CP.B8
